Each block holds one binder with its values, some of them ahead of it.
Columns and labels:
[1] = biological target: T1, His-tagged monkey SIGLEC15 protein (fasSIGLEC15-His, ACROBiosystems Inc., Cat #: SG5-C52H6) (monkey); experiment: SPR (Biacore 8K), antibody captured on Protein A chip, His-tagged SIGLEC15 as analyte
T1 sequence: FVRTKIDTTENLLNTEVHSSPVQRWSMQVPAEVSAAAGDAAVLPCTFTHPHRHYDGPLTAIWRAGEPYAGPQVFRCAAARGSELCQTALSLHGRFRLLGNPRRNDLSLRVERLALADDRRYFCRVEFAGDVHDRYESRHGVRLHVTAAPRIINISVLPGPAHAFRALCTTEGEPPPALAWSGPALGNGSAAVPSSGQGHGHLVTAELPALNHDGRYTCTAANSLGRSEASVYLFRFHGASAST

[2] = biological target: Macaca fascicularis (crab-eating macaque) SIGLEC15 on CHO-S-fasSIGLEC15 cells (Macaca fascicularis (crab-eating macaque)); experiment: flow cytometry, CHO-S cells expressing the target

Kd [1]: 0.0206 nM
koff [1]: 5.01e-05 s⁻¹
kon [1]: 2.43e+06 M⁻¹ s⁻¹
Percentage of Positive Cells [2]: 47.5%
B1: anti-SIGLEC15 antibody 10C9 (antibody, human IgG1, V domains shown)
VH: QVQLVQSGAEVKKPGATVKVSCKASGYTFTNYGFSWVRQAPGQGLEWMGWINTYNDNTNYAQKFQGRVTMTTDTSTSTAYMELRSLRSDDTAVYYCARDGLWFGELPHYFDYWGQGTLVTVSS
VL: DIQLTQSPLSSPVTLGQPASISCRSSQSLVNSDGETFLSWLQQRPGQPPRLLIYKISNRFSGVPDRFSGSGAGTDFTLKISRVEAEDVGVYYCMQATQFPHTFGQGTKLEIK

Percentage of Positive Cells [2]: 49.3%
B2: anti-SIGLEC15 antibody 10A7 (antibody, human IgG1, V domains shown)
VH: EVQLVQSGGGLVQPGGSLRLSCAASGFTFSNYEMNWVRQAPGKGLEWISYISNSGSTIYYADSVKGRFTISRDDAKNSLYLQMNSLRAEDTAVYYCAREDYDSSGYYWFDPWGQGTPVTVSS
VL: DIQLTQSPSSVSASVGDRVTITCRASQGISSWLAWYQQKPGKAPKLLIYAASSLQSGVPSRFSGSGSGTDFTLTINSLQPEDFATYYCQQTNSFPLTFGGGTKVEIK

Reference: patent publication US20250361296A1
